These results are taken from paper PMC10485824 (Life Science Alliance, 2023).

The chains are these.
T1: RIPK2^1−300 (human, UniProt O43353 1-300, labelled with the Monolith Protein labelling kit RED-NHS second generation (primary amines) for MST only)
T1 chain: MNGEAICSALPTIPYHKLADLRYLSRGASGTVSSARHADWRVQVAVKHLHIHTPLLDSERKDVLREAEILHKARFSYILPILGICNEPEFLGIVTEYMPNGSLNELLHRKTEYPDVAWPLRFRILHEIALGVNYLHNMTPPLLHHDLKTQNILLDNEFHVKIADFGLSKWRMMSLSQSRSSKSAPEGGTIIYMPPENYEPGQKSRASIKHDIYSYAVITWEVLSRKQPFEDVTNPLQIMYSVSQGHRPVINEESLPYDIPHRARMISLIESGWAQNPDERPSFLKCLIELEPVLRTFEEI

B1: XIAP BIR2^93−263 (domain or fragment, human)
chain: GPINGFYLENSATQSTNSGIQNGQYKVENYLGSRDHFALDRPSETHADYLLRTGQVVDISDTIYPRNPAMYSEEARLKSFQNWPDYAHLTPRELASAGLYYTGIGDQVQCFCCGGKLKNWEPCDRAWSEHRRHFPNCFFVLGRNLNIRSESDAVSSDRNFPNSTNLPRNPSMA
notes: two additional residues after the P3C cleavage site; XIAP, human, residues 93-263; source: E. coli Rosetta 2, purified (glutathione sepharose, P3C cleavage, SEC); not shown: GST, N-terminal, cleaved
B2: XIAP BIR2^124–240 (domain or fragment, human)
chain: GPRDHFALDRPSETHADYLLRTGQVVDISDTIYPRNPAMYSEEARLKSFQNWPDYAHLTPRELASAGLYYTGIGDQVQCFCCGGKLKNWEPCDRAWSEHRRHFPNCFFVLGRNLNIRSE
notes: two additional residues after the P3C cleavage site; XIAP, human, linker region (124-154) and BIR2 domain, residues 124-240; also called long BIR2 construct; source: E. coli Rosetta 2, purified (glutathione sepharose, P3C cleavage, SEC); not shown: GST, N-terminal, cleaved
B3: XIAP BIR2AG^124–240 (domain or fragment, human)
chain: B2 chain with C81A, C92G
notes: two additional residues after the P3C cleavage site; XIAP, human, residues 124-240 with the AG mutations C202A and C213G; For NMR uniformly 15N- or 13C/15N-labelled (M9 medium); also called AG construct (long); ^15N-labeled XIAP BIR2; source: E. coli Rosetta 2, purified (glutathione sepharose, P3C cleavage, SEC); not shown: GST, N-terminal, cleaved
B4: XIAP BIR2^124−263 (domain or fragment, human)
chain: GPRDHFALDRPSETHADYLLRTGQVVDISDTIYPRNPAMYSEEARLKSFQNWPDYAHLTPRELASAGLYYTGIGDQVQCFCCGGKLKNWEPCDRAWSEHRRHFPNCFFVLGRNLNIRSESDAVSSDRNFPNSTNLPRNPSMA
notes: two additional residues after the P3C cleavage site; XIAP, human, residues 124-263; source: E. coli Rosetta 2, purified (glutathione sepharose, P3C cleavage, SEC); not shown: GST, N-terminal, cleaved
B5: RIPK2^1−300 (domain or fragment, human, UniProt O43353 1-300, looked up)
chain: T1 chain
modifications: labelled with the Monolith Protein labelling kit RED-NHS second generation (primary amines) for MST only
notes: RIPK2, human, kinase domain, residues 1-300; also called kinase domain of RIPK2 (residues 1–300); source: sf21 insect cells (baculovirus), purified (amylose resin, TEV cleavage, anion exchange)
B6: XIAP BIR2^93−240 (domain or fragment, human)
chain: GPINGFYLENSATQSTNSGIQNGQYKVENYLGSRDHFALDRPSETHADYLLRTGQVVDISDTIYPRNPAMYSEEARLKSFQNWPDYAHLTPRELASAGLYYTGIGDQVQCFCCGGKLKNWEPCDRAWSEHRRHFPNCFFVLGRNLNIRSE
notes: two additional residues after the P3C cleavage site; XIAP, human, residues 93-240; source: E. coli Rosetta 2, purified (glutathione sepharose, P3C cleavage, SEC); not shown: GST, N-terminal, cleaved
B7: XIAP BIR2^154–240 (domain or fragment, human, UniProt P98170 154-240, looked up)
chain: YPRNPAMYSEEARLKSFQNWPDYAHLTPRELASAGLYYTGIGDQVQCFCCGGKLKNWEPCDRAWSEHRRHFPNCFFVLGRNLNIRSE
notes: Plasmid pET49, a gift from Katrin Rittinger; also called short BIR2 construct; source: E. coli Rosetta 2, purified (glutathione sepharose, P3C cleavage, SEC); not shown: GST, N-terminal, cleaved
B8: XIAP BIR2AG^154–240 (domain or fragment, human, UniProt P98170 154-240, looked up)
chain: B7 chain with C49A, C60G
notes: XIAP, human, BIR2 domain, residues 154-240 with the AG mutations C202A and C213G; Plasmid pET49, a gift from Katrin Rittinger; also called AG construct (short); source: E. coli Rosetta 2, purified (glutathione sepharose, P3C cleavage, SEC); not shown: GST, N-terminal, cleaved
B9: RIPK2^1−317 (domain or fragment, human, UniProt O43353 1-317, looked up)
chain: MNGEAICSALPTIPYHKLADLRYLSRGASGTVSSARHADWRVQVAVKHLHIHTPLLDSERKDVLREAEILHKARFSYILPILGICNEPEFLGIVTEYMPNGSLNELLHRKTEYPDVAWPLRFRILHEIALGVNYLHNMTPPLLHHDLKTQNILLDNEFHVKIADFGLSKWRMMSLSQSRSSKSAPEGGTIIYMPPENYEPGQKSRASIKHDIYSYAVITWEVLSRKQPFEDVTNPLQIMYSVSQGHRPVINEESLPYDIPHRARMISLIESGWAQNPDERPSFLKCLIELEPVLRTFEEITFLEAVIQLKKTKLQSV
notes: Incubated with nucleotide (ATP or AMPPCP) and MgCl2 before XIAP BIR2 was added; ATP-MgCl2 is said to promote full phosphorylation; Antiparallel dimer in the complex; also called RIPK2 kinase; RIPK2 wt; source: sf21 insect cells (baculovirus), purified (amylose resin, TEV cleavage, anion exchange)
B10: RIPK2^1−317 K209A (domain or fragment, human, UniProt O43353 1-317, looked up)
chain: B9 chain with K209A
notes: Incubated with 500 μM ATP and 5 mM MgCl2 before XIAP BIR2 was added; also called RIPK2–K209A (recombinant); source: sf21 insect cells (baculovirus), purified as RIPK2 wt
B11: RIPK2^1−317 K209R (domain or fragment, human, UniProt O43353 1-317, looked up)
chain: B9 chain with K209R
notes: Incubated with 500 μM ATP and 5 mM MgCl2 before XIAP BIR2 was added; also called RIPK2–K209R (recombinant); source: sf21 insect cells (baculovirus), purified as RIPK2 wt
B12: RIPK2^1−317 S282L (domain or fragment, human, UniProt O43353 1-317, looked up)
chain: B9 chain with S282L
notes: Incubated with 500 μM ATP and 5 mM MgCl2 before XIAP BIR2 was added; also called RIPK2–S282L (recombinant); source: sf21 insect cells (baculovirus), purified as RIPK2 wt

Substitutions are numbered along the chain they refer to. Names and notes keep the numbering of the source. Values joined by “and” are separate entries in the source; they are usually repeats but may differ in a detail not shown here. Equal values may be shown once.

For series [1], the target named is B5. Put plainly: MST; RIPK2 1-300 labelled with RED-NHS at 20 nM final, XIAP BIR2 constructs titrated from 1.2-2,500 nM; 20 mM Hepes pH 7.5, 150 mM NaCl, 2% glycerol, 0.05% Tween-20; 20°C; one-site binding model, triplicates. The settings on record: both partners purified.
The target in series [2] is T1, RIPK2^1−300. Put plainly: MST.
In series [3] the target is B5. In words: native MS; complex fractions reapplied on Superdex 200 10/300 increase in 250 mM ammonium acetate with 1 mM DTT; concentration range of 10 μM. As to conditions: both partners purified.
In series [4] the target is B9. Described as above. The settings on record: both partners purified.
Series [5] deals with the molecule itself. Described as above.
For series [6], the target named is B9. Put plainly: cryo-EM structure; single-particle cryo-EM of the SEC-purified RIPK2 1-317-XIAP BIR2 154-240 complex, Titan Krios 300 keV, untilted and tilted data, 3.15 Å. The settings on record: both partners purified.
Series [7] deals with the molecule itself. Put plainly: SEC; RIPK2 1-317 wt or mutant with 500 μM ATP and 5 mM MgCl2 on ice, XIAP BIR2 154-240 added in excess (1:2), Superdex 200 3.2/300 increase in buffer C; fractions on SDS-PAGE.

As to B1, in the series with RIPK2^1−300 [1], the binding result was “binds”.
B2 registered a Kd in the series with RIPK2^1−300 [2] of 85.9 nM. For the same molecule, in the series with RIPK2^1−300 [3], the “stoichiometry N” value is 1 RIPK2 per XIAP BIR2 (printed as the ratio 2:2) and 2 RIPK2 per XIAP BIR2 (printed as the ratio 2:1).
For B3, the “stoichiometry N” value with RIPK2^1−317 [4] was 1 RIPK2 per XIAP BIR2 (printed as the ratio 2:2).
Turning to B4, the affinity with RIPK2^1−300 [2], expressed as Kd, was 142 nM. Besides, in the series with RIPK2^1−300 [1], the binding result is “binds”.
B5: in series [5], the “stoichiometry N” value was 2 molecules of RIPK2.
B6 yielded a Kd in the series with RIPK2^1−300 [2] of 92.9 nM. In addition, the binding result with RIPK2^1−300 [1] is recorded as “binds”.
Regarding B7, the entries for the “stoichiometry N” value with RIPK2^1−317 [6] and in the series with RIPK2^1−317 [4] were 2 RIPK2 per XIAP BIR2 (printed as the ratio 2:1) and 1 RIPK2 per XIAP BIR2 (printed as the ratio 2:2), respectively. In addition, binding in the series with RIPK2^1−300 [1] was characterised by a dissociation constant (Kd) of 85.6 ± 18.7 nM.
B8: the “stoichiometry N” value with RIPK2^1−317 [4] is 2 RIPK2 per XIAP BIR2 (printed as the ratio 2:1) and 1 RIPK2 per XIAP BIR2 (printed as the ratio 2:2).
As to B9, the “stoichiometry N” value in series [5] is 2 molecules of RIPK2.
As for B10, the binding result in series [7] is recorded as “binds”.
Same read-out and setting: as for B11, the entry is “binds”; as for B12, “binds”.

In general, Kd refers to the concentration at which binding is half-saturated. A lower Kd goes with tighter binding. As usually defined, the stoichiometry N is the number of molecules, sites or subunits per partner or assembly.
